Among the data in PMC10883267 (2023) are screen value values, retold here.

To fix the notation:
B1: mouse eIF4E1B (63-244) [mouse] / eIF4E-binding motif of human eIF4EBP1 (50-83) [human] (parent complex)
chain 1: KLHPLQYRWVLWFFKNDRSRAWQDNLQLVTKFNTVEDFWAVYSHIKLASKLSSGCDYALFKEGILPMWEDNRNKQGGRWLLSIDKQLRHFELDRLWLETLLCLVGNCFEEYSREVCGAVVNIRTKRDKIALWTSEAEDKAGVMQIGQIYKERLGISTKTIIGYQAHADTAAKSNNLANKFVV
chain 2: TRIIYDRKFLMECRNSPVTKTPPRDLPTIPGVTS
B2: mouse eIF4E1B (63-244) [mouse] / eIF4E-binding motif of human eIF4ENIF1 (27-63) [human] (parent complex)
chain 1: B1 chain 1
chain 2: PHRYTKEELLDIKELPHSKQRPSCLSEKYDSDGVWDP
B3: mouse eIF4E1B (63-244) [mouse] / eIF4E-binding motif of human eIF4G (608-647) [human] (parent complex)
chain 1: B1 chain 1
chain 2: EKKRYDREFLLGFQFIFASMQKPEGLPHISDVVLDKANKT

Variants of B1 are the subject of one test. Description: pulldown with E. coli lysates, quantified; n = 3 independent experiments; parent: 0.9; read off a plot.
For the variant chain 1 K50N, the screen value is ~0.68 rel. to Mm eIF4E.

Consider chain 1 K46E, for which the screen value is ~0.85 rel. to Mm eIF4E.

With chain 1 K50N, chain 1 S52M, chain 1 N71E, chain 1 H89R, the screen value was ~0.7 rel. to Mm eIF4E.

The variants in a further test derive from B2. Put plainly: pulldown with E. coli lysates, quantified; n = 3 independent experiments; parent: 2.5; read off a plot.
On to chain 1 K50N, for which the screen value is ~1.6 rel. to Mm eIF4E.

Regarding chain 1 K50N, chain 1 S52M, chain 1 N71E, chain 1 H89R, the screen value is ~1.4 rel. to Mm eIF4E.

In the case of chain 1 K46E, the screen value is ~1.6 rel. to Mm eIF4E.

The variants in the next test derive from B3. Description: pulldown with E. coli lysates, quantified; n = 3 independent experiments; parent: 0.3; read off a plot.
In the case of chain 1 K50N, the screen value is ~0.22 rel. to Mm eIF4E.

Take chain 1 K46E: the screen value was ~0.13 rel. to Mm eIF4E.

As for chain 1 K50N, chain 1 S52M, chain 1 N71E, chain 1 H89R, the screen value was ~0.22 rel. to Mm eIF4E.
